Experimental findings from the supplement of paper PMC12042874 are described below.

± gives the uncertainty stated by the source.

A short description of this series: amyloid nucleation score (Sup35N fusion, yeast selection) (log enrichment); library NNK1; higher = more nucleation; inactive = no reads after selection. In a few lines: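 For the nucleation score, DiMSum gave the log enrichment of output over input reads, centred on the mode score of non-aggregating sequences. Psi-negative yeast expressing Sup35N fused to peptides of 20 random codons were induced with 100 μM copper sulfate for 24 hours and grown 7 days at 30°C on medium lacking adenine and uracil. Input and output plasmid inserts were Illumina-sequenced, and sequences with under 100 input reads were excluded.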
Turning to YLQGENNWRVVGQRLSTSPA, the amyloid nucleation score came to 0.03 ± 0.4.

GSCSYSYCTNFVRTMYGAYG came in with an amyloid nucleation score of 0.379 ± 0.71.

The substance QDIARPRYIPSNNRKKTREP displayed an amyloid nucleation score of -1.35 ± 1.9.

As to VSGDPNMRLCAISIATGFVF, the amyloid nucleation score was -0.468 ± 0.63.

As for LRCFYEYGFHKRTKVDSIDT, the amyloid nucleation score entry was “inactive”.

CFRHRYRQLGIMWWGLRLQL came in with an amyloid nucleation score of -1.44 ± 2.4.

As to NMFTFLSKRR, the amyloid nucleation score was -0.928 ± 0.4.

Regarding AVLIRSGCRIRNRRHG, the amyloid nucleation score was found to be 0.782 ± 0.75.

CSRNDTVHATINMWDNSATA yielded an amyloid nucleation score of -0.07 ± 0.41.

As for HKFVRIDGEN, the amyloid nucleation score was 1.54 ± 0.84.

Substance IQNISLGVVGVMWNPHTCVV had an amyloid nucleation score of -0.708 ± 0.66.

As to GVCFLAR, the amyloid nucleation score is 0.707 ± 0.74.

EPCVGNSNSCCVHC came in with an amyloid nucleation score of -0.072 ± 0.53.

On to LSIGFGNPVAS, for which the amyloid nucleation score was -0.312 ± 0.29.

KVCVLLSSCIYDNLHVR came in with an amyloid nucleation score of 0.402 ± 1.4.

Substance LKCFRLS showed an amyloid nucleation score of 0.327 ± 0.55.

QESVGSNRRVVGDNASLRLL returned an amyloid nucleation score of -0.211 ± 0.86.

The substance SARYL yielded an amyloid nucleation score of 0.496 ± 0.7.

With SIMNISVAYCGSM, the amyloid nucleation score is 3.67 ± 0.14.

ALSPRVSSLGNFT had an amyloid nucleation score of -0.691 ± 0.53.

TRYGVYQYVVDSLINCHLLE came in with an amyloid nucleation score of -0.186 ± 0.52.

With VLTWMDVTDLLGCVLKLSPV, the amyloid nucleation score stood at 1.36 ± 0.45.

LIENTGLHRENISRAPGGR yielded an amyloid nucleation score of -0.469 ± 0.83.

On to SRATSYKFSTGRCCWTGTVK, for which the amyloid nucleation score worked out at 0.072 ± 0.91.

Substance PNAVNIIYDCAQLLFMRTMR returned an amyloid nucleation score of -0.188 ± 0.65.

In turn, MNFCYLCTTWWSYYFQ gave an amyloid nucleation score of -0.38 ± 0.32.

In turn, LCFDVSFRYYGMGYIL registered an amyloid nucleation score of 0.165 ± 0.23.

Consider RACYTCVPVSGSRMSVRNLW, for which the amyloid nucleation score stood at 3.19 ± 0.13.

With TVKCILYSRFHKGCGWRCER, the amyloid nucleation score is 3.15 ± 0.14.

Take SMCLCVYIWIALYGWVMLIP: the amyloid nucleation score was 0.217 ± 0.21.

In turn, AGRRKSRSAVQREP yielded an amyloid nucleation score of 0.528 ± 0.88.

Regarding FFVLFEVYMVWFTEGFARLA, the amyloid nucleation score is -0.733 ± 0.57.

Take ELTNR: the amyloid nucleation score was 0.044 ± 0.39.

Consider VHGGAWLTGGSRTGAQFIAV, for which the amyloid nucleation score was -0.402 ± 0.59.

WIPSFIQMDTVVRDTVNKEF showed an amyloid nucleation score of 1.09 ± 0.74.

Consider DGARDFRLRMLACSRLSRGI, for which the amyloid nucleation score stood at 0.053 ± 0.72.

With FLEKSFLCSWSLVRTEGEWA, the amyloid nucleation score is -0.333 ± 0.57.

For RFGTY, the amyloid nucleation score was -0.067 ± 0.94.

In the case of YPPRAQDMTRSAQRKCQRGV, the amyloid nucleation score result was “inactive”.

As for RWKRVIMSQHQVVYVNSWMV, the amyloid nucleation score is -0.484 ± 1.9.

Substance FWRMTFQRHEKLSHQ had an amyloid nucleation score of -0.28 ± 0.38.

With RVTVTLFYMFNNRGEGKSQA, the amyloid nucleation score turned out to be 3.44 ± 0.12.

Substance IWKSSRGPLIGLVVLDIARR came in with an amyloid nucleation score of 1.01 ± 0.79.

The substance GSEFQVLSFF came in with an amyloid nucleation score of 0.419 ± 0.58.

As to DGSVYTPVIVY, the amyloid nucleation score stood at 0.207 ± 0.29.

YTVLEGGALCFLKELRHRIL came in with an amyloid nucleation score of -0.146 ± 0.32.

WYAGFTGRFRSLFFIISIFG registered an amyloid nucleation score of -0.529 ± 1.

RLYPQYLNFKVCKFGSLDGG: the amyloid nucleation score is -0.836 ± 0.31.

Take VNNYTF: the amyloid nucleation score was 0.234 ± 0.28.

In the case of WCRRWFLLYWVCAETKFGSG, the amyloid nucleation score is -0.367 ± 0.52.

With SYKGWVGLVLRVETDGNWSR, the amyloid nucleation score amounted to 2.28 ± 0.13.

For the substance AIEPHDGFWGVWSTLGVILI, the amyloid nucleation score is 1.32 ± 0.93.

WSPNNTISNGMTKVWASGRL came in with an amyloid nucleation score of 0.78 ± 0.56.

The substance CSSDFYYLAELNLPFN displayed an amyloid nucleation score of 0.917 ± 0.43.

In turn, PFILFQWPTLHRDYVHAQVL registered an amyloid nucleation score of 0.686 ± 1.1.

With LSCKSVVPLSNSWYAIVLRL, the amyloid nucleation score turned out to be 1.19 ± 0.29.

With NKSVNLEYGRWVNMVPGLM, the amyloid nucleation score result was “inactive”.

The substance IFRMAPKQCPSLWVASPHWI came in with an amyloid nucleation score of 0.743 ± 0.55.

In turn, VVMQACNLNMCFMNGCRRGC returned an amyloid nucleation score of 7.304 ± 0.045.

With KSFSIYTVIVV, the amyloid nucleation score is 1.2 ± 0.26.

In the case of SNPTYLWVVLLVRSAALRMD, the amyloid nucleation score entry is “inactive”.

Substance GLYLNGPVINMWVVVASREV came in with an amyloid nucleation score of 7.512 ± 0.044.

For LLLTHNLVNADDSVDSMQHK, the amyloid nucleation score stood at 0.086 ± 0.24.

CLILG: the amyloid nucleation score is -1.31 ± 0.52.

ENRFARCYRVV yielded an amyloid nucleation score of 2.1 ± 0.1.

Substance LDAKVFRVALAYYLPPGP yielded an amyloid nucleation score of 0.789 ± 0.53.

For the substance NVVWAYSMAFMTSAFSVNYP, the amyloid nucleation score entry was “inactive”.

VNAMSLLILDAVLDKEQW: the amyloid nucleation score was 0.921 ± 1.

TAIIPPHFLASDSFRWSCAC returned an amyloid nucleation score of 0.008 ± 0.34.

Consider STRHPTKNR, for which the amyloid nucleation score was 0.823 ± 0.21.

KSQVVMRDVEPATNIV registered an amyloid nucleation score of -0.153 ± 0.69.

For the substance GRSLAFTSYCLMKGLTSVSV, the amyloid nucleation score is -0.383 ± 0.29.

In the case of WIHIVYGFWSWVWGI, the amyloid nucleation score is -0.327 ± 0.47.

YMHSGGQGLLCIQVSYTMSF: the amyloid nucleation score is -0.503 ± 0.83.

Consider FGSSMLDFNLDFDKWCE, for which the amyloid nucleation score amounted to 3.66 ± 0.076.

As to PIKHCRRRNTDRRKTGMSQV, the amyloid nucleation score is -0.447 ± 0.62.

Consider SHADVR, for which the amyloid nucleation score was -0.027 ± 0.83.

In turn, LTILCWWLYEIRR gave an amyloid nucleation score of 0.556 ± 0.55.

As to NSRWSIFFASMCDIRLWCVV, the amyloid nucleation score was 0.755 ± 0.84.

Regarding RVWMGFDWIEDESRLDSTM, the amyloid nucleation score stood at 0.21 ± 0.82.

Turning to NVRRLIFIMLKLDAICYWSS, the amyloid nucleation score is -0.695 ± 1.1.

On to GNVLDFCPWLVGLLCHGGGV, for which the amyloid nucleation score worked out at 0.149 ± 0.35.

For VFNFT, the amyloid nucleation score was -0.816 ± 1.9.

As to VAVVLYAQTV, the amyloid nucleation score is -0.376 ± 0.63.

With GYNGCYNIFVHRSDKMAALR, the amyloid nucleation score worked out at 0.515 ± 0.59.

On to FVSGVFGYRMYDPRRVWLSL, for which the amyloid nucleation score was -0.178 ± 0.7.

For the substance YMILLSLGVFFTPVPDYFAQ, the amyloid nucleation score was -0.385 ± 0.68.

VNVKSVRYRKMSLGVYLVDW had an amyloid nucleation score of 0.261 ± 0.68.

Substance GPRVSPVKFIVRLGQVNLDR showed an amyloid nucleation score of 0.448 ± 0.61.

Regarding CFMETYSWKVRYTLFHKLST, the amyloid nucleation score was 0.552 ± 0.79.

As for SRTGRH, the amyloid nucleation score worked out at 0.972 ± 0.93.

Substance CWVYDGRIYPHL showed an amyloid nucleation score of 1.05 ± 0.85.

For the substance YIMSGRFTNY, the amyloid nucleation score amounted to 2.13 ± 0.28.

Turning to RSTGTGTICV, the amyloid nucleation score entry was “inactive”.

Take CFPMIQMEHSIKS: the amyloid nucleation score is -0.449 ± 1.1.

As for IWPYLGSASVL, the amyloid nucleation score is 1.73 ± 0.35.

Take ISLVICGFYGLAEMVDNSQN: the amyloid nucleation score is 7.51 ± 0.077.

As for LDTGVMMEIKICIHYRDCYD, the amyloid nucleation score came out at 1.84 ± 0.21.

ISICYRIEKRE: the amyloid nucleation score result was “inactive”.

Consider VLEYPSTSAARFSHRVKRK, for which the amyloid nucleation score was 8.434 ± 0.047.

Substance YILLLFSVVWIKKFGDCSCA had an amyloid nucleation score of -0.048 ± 0.35.

With NRLKFSLV, the amyloid nucleation score was -2.62 ± 2.7.

For the substance SLKCSNGR, the amyloid nucleation score amounted to 0.49 ± 0.3.

With LSSNSYQDVSVCQGFLFFVA, the amyloid nucleation score worked out at 3.36 ± 0.15.

Turning to WAAFLVMDGWICDQAYMTMR, the amyloid nucleation score result is “inactive”.

On to GLPLNA, for which the amyloid nucleation score result is “inactive”.

Turning to WNYIEGASFSRMGEASNAPG, the amyloid nucleation score was -0.944 ± 1.2.

FYRFDQRNLEDVGGGMYGSS returned an amyloid nucleation score of 0.3 ± 0.83.

In the case of SGTTRWCRGGV, the amyloid nucleation score was 0.127 ± 0.74.

ILHWEKRDSTVKILSLSIHW: the amyloid nucleation score amounted to 0.385 ± 0.46.

Regarding KRCSYRS, the amyloid nucleation score worked out at 0.07 ± 0.6.

PGKRHGFMLRDFAMPKLSYH yielded an amyloid nucleation score of -0.918 ± 0.59.

The substance QDFNNEFFFSCRAAAKTTNA gave an amyloid nucleation score of -1.54 ± 1.7.

In the case of DIRMVDWVRNRVQHVADGK, the amyloid nucleation score is -0.892 ± 0.7.

The substance YVSCFRG showed an amyloid nucleation score of 0.925 ± 0.3.

Take FKRRLGCLKPRNY: the amyloid nucleation score is -0.333 ± 0.52.

As for ICSRTVKFYSSSF, the amyloid nucleation score is -2.03 ± 2.4.

NPSNKCLSEPWQDHLLGAWR had an amyloid nucleation score of 0.758 ± 0.67.

As for KANCCCVSHWCCGYMQ, the amyloid nucleation score is 4.63 ± 0.052.

With PVDNLFNFLSGSCAISNFQK, the amyloid nucleation score is 0.638 ± 0.58.

KWYNTPNSDWSV displayed an amyloid nucleation score of -0.983 ± 1.7.

Substance NSCTGSGGCSWEDKGNWCVK gave an amyloid nucleation score of 0.183 ± 0.28.

Turning to SSLLFEPATASFILQD, the amyloid nucleation score was -0.894 ± 0.68.

For TLNVFDH, the amyloid nucleation score was -0.421 ± 0.4.

For the substance VKCGLG, the amyloid nucleation score was found to be 0.696 ± 0.84.

Turning to WCHGHYHSSNEMSTI, the amyloid nucleation score came out at 1.37 ± 0.69.

With PFWAGG, the amyloid nucleation score entry was “inactive”.

ITYIGWQGSNLYWLFTTTLV had an amyloid nucleation score of -1.12 ± 1.9.

RKESDNDFSTCVTWQNRHPD: the amyloid nucleation score turned out to be 0.529 ± 0.74.

On to VIVWVWSCVM, for which the amyloid nucleation score stood at 6.247 ± 0.055.

Turning to GFVILDSNPLRFNCFWVDAF, the amyloid nucleation score was 0.325 ± 0.29.

In turn, LFLIV showed an amyloid nucleation score of -0.08 ± 0.24.

As for AYAGLRCVGSDVIAGKTVAN, the amyloid nucleation score is 0.684 ± 1.2.

Regarding INETLYRTFSRL, the amyloid nucleation score is -0.471 ± 0.56.

IKTAFMVMNNGKDVMSRSWG returned an amyloid nucleation score of 0.402 ± 0.4.

Consider DFHTITGMANFTLSLCYSHK, for which the amyloid nucleation score was -0.945 ± 1.4.

The substance SPVESQNSNNRLTIMDLIMR gave an amyloid nucleation score of 0.574 ± 0.97.

As for VPSSTVVDHSIYRGDMPSFA, the amyloid nucleation score came out at 0.163 ± 0.41.

In turn, RRLLISPMTYVSDLASIQGC displayed an amyloid nucleation score of 0.175 ± 0.26.

Substance NCECSFWKREGSWGTLVSGM had an amyloid nucleation score of 0.201 ± 0.51.

For the substance DLDKRMVSYDFKICGYKINF, the amyloid nucleation score came out at 3.77 ± 0.1.
